B1: Zinc finger homeobox protein 3, residues 2147 to 2202; numbered along this chain, Q15911 (parent)
chain: RPRTRITDDQLRVLRQYFDINNSPSEEQIKEMADKSGLPQKVIKHWFRNTLFKERQ

± gives the uncertainty stated by the source.

In this data set the parent is B1. In words: abundance fitness (aPCA) (normalised: wild type 0, dead -1); higher = more abundant; growth selection in yeast, the domain comes from the species named. Conditions: Homo sapiens.
With RPRTRITDDQLRVLRQYFDINNSPSEEQIKEMADKSGLPQKVIKHWFRNALFKERQ [T50A], the abundance fitness is -0.11 ± 0.1.
Then RPRTRITDDQLRVLRQYFDINNSPSEEQIKEMADKSGLPQKVIKHWFRNMLFKERQ [T50M], with -0.051 ± 0.24; and RPRTRITDDQLRVLRQYFDINNSPSEEQIKEMADKSGLPQKVIKHWFRNKLFKERQ [T50K], with 0.094 ± 0.17.
Then RPRTRITDDQLRVLRQYFDINNSPSEEQIKEMADKSGLPQKVIKHWFRNPLFKERQ [T50P], with -0.335 ± 0.16; and RPRTRITDDQLRVLRQYFDINNSPSEEQIKEMADKSGLPQKVIKHWFRNGLFKERQ [T50G], with -0.187 ± 0.086.
Then RPRTRITDDQLRVLRQYFDINNSPSEEQIKEMADKSGLPQKVIKHWFRNVLFKERQ [T50V], with -0.078 ± 0.097; and RPRTRITDDQLRVLRQYFDINNSPSEEQIKEMADKSGLPQKVIKHWFRNDLFKERQ [T50D], with -0.264 ± 0.18.
As to RPRTRITDDQLRVLRQYFDINNSPSEEQIKEMADKSGLPQKVIKHWFINTLFKERQ [R48I], the abundance fitness was -0.009 ± 0.14.
Turning to RPRTRITDDQLRVLRQYFDINNSPSEEQIKEMADKSGLPQKVIKHWFKNTLFKERQ [R48K], the abundance fitness worked out at 0.107 ± 0.13.
Then RPRTRITDDQLRVLRQYFDINNSPSEEQIKEMADKSGLPQKVIKHWFQNTLFKERQ [R48Q], with 0.008 ± 0.12; and RPRTRITDDQLRVLRQYFDINNSPSEEQIKEMADKSGLPQKVIKHWFNNTLFKERQ [R48N], with 0.102 ± 0.21; and RPRTRITDDQLRVLRQYFDINNSPSEEQIKEMADKSGLPQKVIKHWFWNTLFKERQ [R48W], with -0.306 ± 0.089.
For RPRTRITDDQLRVLRQYFDINNSPSEEQIKEMADKSGLPQKVIKHWFYNTLFKERQ [R48Y], the abundance fitness is -0.413 ± 0.21.
Then RPRTRITDDQLRVLRQYFDINNSPSEEQIKEMADKSGLPQKVIKHWFMNTLFKERQ [R48M], with -0.06 ± 0.11; and RPRTRITDDQLRVLRQYFDINNSPSEEQIKEMADKSGLPQKVIKHWFANTLFKERQ [R48A], with -0.042 ± 0.091.
Then RPRTRITDDQLRVLRQYFDINNSPSEEQIKEMADKSGLPQKVIKHWFFNTLFKERQ [R48F], with -0.023 ± 0.16.
Then RPRTRITDDQLRVLRQYFDINNSPSEEQIKEMADKSGLPQKVIKHWFCNTLFKERQ [R48C], with -0.446 ± 0.14.
Regarding RPRTRITDDQLRVLRQYFDINNSPSEEQIKEMADKSGLPQKVIKHWFENTLFKERQ [R48E], the abundance fitness came out at 0.057 ± 0.12.
Next, RPRTRITDDQLRVLRQYFDINNSPSEEQIKEMADKSGLPQKVIKHWFTNTLFKERQ [R48T]: -0.07 ± 0.12; RPRTRITDDQLRVLRQYFDINNSPSEEQIKEMADKSGLPQKVIKHWFPNTLFKERQ [R48P]: -0.461 ± 0.14.
Next, RPRTRITDDQLRVLRQYFDINNSPSEEQIKEMADKSGLPQKVIKHWFHNTLFKERQ [R48H]: -0.064 ± 0.21; RPRTRITDDQLRVLRQYFDINNSPSEEQIKEMADKSGLPQKVIKHWFSNTLFKERQ [R48S]: -0.121 ± 0.09.
Regarding RPRTRITDDQLRVLRQYFDINNSPSEEQIKEMADKSGLPQKVIKHWFGNTLFKERQ [R48G], the abundance fitness was -0.118 ± 0.068.
Then RPRTRITDDQLRVLRQYFDINNSPSEEQIKEMADKSGLPQKVIKHWFRNTLRKERQ [F52R], with 0.148 ± 0.075; and RPRTRITDDQLRVLRQYFDINNSPSEEQIKEMADKSGLPQKVIKHWFRNTLPKERQ [F52P], with -0.059 ± 0.18.
Then RPRTRITDDQLRVLRQYFDINNSPSEEQIKEMADKSGLPQKVIKHWFRNTLKKERQ [F52K], with 0.185 ± 0.13; and RPRTRITDDQLRVLRQYFDINNSPSEEQIKEMADKSGLPQKVIKHWFRNTLHKERQ [F52H], with -0.189 ± 0.22.
With RPRTRITDDQLRVLRQYFDINNSPSEEQIKEMADKSGLPQKVIKHWFRNTLDKERQ [F52D], the abundance fitness was -0.098 ± 0.2.
Turning to RPRTRITDDQLRVLRQYFDINNSPSEEQIKEMADKSGLPQKVIKHWFRNTLMKERQ [F52M], the abundance fitness stood at 0.101 ± 0.12.
Next, RPRTRITDDQLRVLRQYFDINNSPSEEQIKEMADKSGLPQKVIKHWFRNTLAKERQ [F52A]: 0.074 ± 0.083; RPRTRITDDQLRVLRQYFDINNSPSEEQIKEMADKSGLPQKVIKHWFRNTLCKERQ [F52C]: 0.01 ± 0.14.
Then RPRTRITDDQLRVLRQYFDINNSPSEEQIKEMADKSGLPQKVIKHWFRNTLNKERQ [F52N], with 0.069 ± 0.16; and RPRTRITDDQLRVLRQYFDINNSPSEEQIKEMADKSGLPQKVIKHWFRNTLIKERQ [F52I], with -0.296 ± 0.16; and RPRTRITDDQLRVLRQYFDINNSPSEEQIKEMADKSGLPQKVIKHWFRNTLEKERQ [F52E], with -0.015 ± 0.11.
Then RPRTRITDDQLRVLRQYFDINNSPSEEQIKEMADKSGLPQKVIKHWFRNTLGKERQ [F52G], with 0.09 ± 0.068; and RPRTRITDDQLRVLRQYFDINNSPSEEQIKEMADKSGLPQKVIKHWFRNTLLKERQ [F52L], with 0.026 ± 0.086.
Regarding RPRTRITDDQLRVLRQYFDINNSPSEEQIKEMADKSGLPQKVIKHWSRNTLFKERQ [F47S], the abundance fitness is -0.632 ± 0.093.
In the case of RPRTRITDDQLRVLRQYFDINNSPSEEQIKEMADKSGLPQKVIKHWMRNTLFKERQ [F47M], the abundance fitness was -0.242 ± 0.17.
In the case of RPRTRITDDQLRVLRQYFDINNSPSEEQIKEMADKSGLPQKVIKHWLRNTLFKERQ [F47L], the abundance fitness was -0.211 ± 0.09.
Then RPRTRITDDQLRVLRQYFDINNSPSEEQIKEMADKSGLPQKVIKHWQRNTLFKERQ [F47Q], with -0.801 ± 0.18; and RPRTRITDDQLRVLRQYFDINNSPSEEQIKEMADKSGLPQKVIKHWYRNTLFKERQ [F47Y], with -0.273 ± 0.19; and RPRTRITDDQLRVLRQYFDINNSPSEEQIKEMADKSGLPQKVIKHWKRNTLFKERQ [F47K], with -0.774 ± 0.17.
Next, RPRTRITDDQLRVLRQYFDINNSPSEEQIKEMADKSGLPQKVIKHWNRNTLFKERQ [F47N]: -0.526 ± 0.24; RPRTRITDDQLRVLRQYFDINNSPSEEQIKEMADKSGLPQKVIKHWWRNTLFKERQ [F47W]: -0.188 ± 0.11.
RPRTRITDDQLRVLRQYFDINNSPSEEQIKEMADKSGLPQKVIKHWPRNTLFKERQ [F47P]: the abundance fitness was -0.912 ± 0.16.
RPRTRITDDQLRVLRQYFDINNSPSEEQIKEMADKSGLPQKVIKHWVRNTLFKERQ [F47V]: the abundance fitness is -0.17 ± 0.087.
In the case of RPRTRITDDQLRVLRQYFDINNSPSEEQIKEMADKSGLPQKVIKHWRRNTLFKERQ [F47R], the abundance fitness is -0.858 ± 0.1.
